Data published in patent US10400249B2, “HPPD variants and methods of use” (priority 2014, dated 2019).
Where a chain is given by its changes, count along the chain named. Names may count otherwise.

B1: K306: PfHPPD variant P215L, Q226H, E335P, G336F, A340E (protein)
chain: MADLYENPMGLMGFEFIEFASPTPGTLEPIFEIMGFTKVATHRSKNVHLYRQGEINLILNNEPNSIASYFAAEHGPSVCGMAFRVKDSQKAYNRALELGAQPIHIDTGPMELNLPAIKGIGGAPLYLIDRFGEGSSIYDIDFVYLEGVERNPVGAGLKVIDHLTHNVYRGRMVYWANFYEKLFNFREARYFDIKGEYTGLTSKAMSAPDGMIRILLNEESSKGAGHIEEFLMQFNGEGIQHVAFLTDDLVKTWDALKKIGMRFMTAPPDTYYEMLEGRLPDHGEPVDQLQARGILLDGSSVEGDKRLLLQIFSETLMGPVFFEFIQRKGDDGFGPFNFKELFESIERDQVRRGVLTAD
modifications: HPPD variant - K306
notes: PfHPPD variant P215L, Q226H, E335P, G336F, A340E
B2: PfG336W: reference PfHPPD mutant G336W (protein)
chain: B1 chain with L215P, H226Q, P335E, F336W, E340A
modifications: HPPD variant - Pf336W
B3: K303: PfHPPD variant L200I, P215L, E335P, G336F, A340E (protein)
chain: B1 chain with L200I, H226Q
modifications: HPPD variant - K303
notes: PfHPPD variant L200I, P215L, E335P, G336F, A340E
B4: PfG336Y: reference PfHPPD mutant G336Y (protein)
chain: B1 chain with L215P, H226Q, P335E, F336Y, E340A
modifications: HPPD variant - Pf336Y
B5: K360: PfHPPD variant L200I, E335P, G336F, A340E (protein)
chain: B1 chain with L200I, L215P, H226Q
modifications: HPPD variant - K360
notes: PfHPPD variant L200I, E335P, G336F, A340E
B6: K361: PfHPPD variant L200M, E335P, G336F, A340E (protein)
chain: B1 chain with L200M, L215P, H226Q
modifications: HPPD variant - K361
notes: PfHPPD variant L200M, E335P, G336F, A340E
B7: K304: PfHPPD variant L200M, P215L, E335P, G336F, A340E (protein)
chain: B1 chain with L200M, H226Q
modifications: HPPD variant - K304
notes: PfHPPD variant L200M, P215L, E335P, G336F, A340E
B8: K363: PfHPPD variant Q226H, E335P, G336F, A340E (protein)
chain: B1 chain with L215P
modifications: HPPD variant - K363
notes: PfHPPD variant Q226H, E335P, G336F, A340E
B9: K357: PfHPPD variant A188G, R189C, E335P, G336F, A340E (protein)
chain: B1 chain with A188G, R189C, L215P, H226Q
modifications: HPPD variant - K357
notes: PfHPPD variant A188G, R189C, E335P, G336F, A340E
B10: K250: PfHPPD variant A188G, R189C, P215L, E335P, G336F, A340E (protein)
chain: B1 chain with A188G, R189C, H226Q
modifications: HPPD variant - K250
notes: PfHPPD variant A188G, R189C, P215L, E335P, G336F, A340E
B11: PfEvo33: reference PfHPPD mutant E335P, G336W (protein)
chain: B1 chain with L215P, H226Q, F336W, E340A
modifications: HPPD variant - PfEvo33
B12: K325: PfHPPD variant A188G, R189C, P215N, E335P, G336F, A340E (protein)
chain: B1 chain with A188G, R189C, L215N, H226Q
modifications: HPPD variant - K325
notes: PfHPPD variant A188G, R189C, P215N, E335P, G336F, A340E
B13: PfG336F: reference PfHPPD mutant G336F (protein)
chain: B1 chain with L215P, H226Q, P335E, E340A
modifications: HPPD variant - Pf336F

Tested on: Pseudomonas fluorescens HPPD protein
Assay: OD assay: HPPD activity and pI50 from HPP remaining after derivatisation with DNP
Format: biochemical
Conditions: HPPD enzyme activity of the clone
Procedure: (§1) HPPD proteins were produced and purified as described in WO2011/076882. The activity of HPPD proteins in absence or presence of HPPD inhibitors was determined using either the so called OD assay or the HGD assay.
(§2) • a) The OD assay: The HPPD activity was determined colourimetrically by measuring the amount of HPP remaining in the assay mixture at the end of the incubation period after derivatisation of HPP with 2,4-dinitrophenylhydrazine (DNP) to form an amber-brown colored 2,4-dinitrophenylhydrazone under alkaline conditions. The assay was carried out at room temperature in Greiner F-bottom 96 well microplates. The assay mixture contained 50 mM Tris-HCl pH 7.8, 0.5 mM HPP, 10 mM ascorbate, 650 units of catalase and appropriate amounts of purified HPPD enzyme in a total assay volume of 100 μl. The reaction was started by the addition of enzyme. After an incubation time of 24 minutes, the reaction was stopped by the addition of 50 μl of a solution of 0.04% DNP dissolved in 3.8 N HCl. After a further 15-minute incubation period 100 μl of a 5 N KOH solution was added to the reaction mixture and the amount of unconsumed HPP was measured photometrically at 405 nm. Enzyme activity was calculated as the difference in E405 between assays lacking enzyme (negative control) and the enzyme containing assays (ΔE405=E405(negative control)−E405). Enzyme activity (nmol substrate consumed per min) was calculated from a calibration curve generated from HPP. pI50-values (the negative log value of the concentration of inhibitor necessary to inhibit 50% of the enzyme activity in molar concentration were determined from dose-response plots of HPPD activity versus inhibitor concentration tested (5.0×10^−6, 1.0×10^−5, 2.5×10^−5, 4.0×10^−5, 7.0×10^−5, 1.0×10^−4, 2.0×10^−4 and 5.0×10^−4M) using the 4 Parameter Logistic Model or Sigmoidal Dose-Response Model of the ID Business Solutions Ltd. XLfit software suite. The result “>5.6” means that the inhibition at the lowest inhibitor concentration tested was higher than 85% and the pI50-value could therefore not be precisely calculated within in the range of concentration of inhibitor tested. The result “<2.5” means that the inhibition at the highest inhibitor concentration tested was lower than 25% and the pI50-value could therefore not be precisely calculated within in the range of concentration of inhibitor tested. “n.d.” means not determined. • b) The HGD assay: With the HGD assay HPPD activity was measured at room temperature by adding appropriate amounts of HPPD to a solution of 200 mM Tris-HCl pH 7.6, 10 mM ascorbate, 20 μM FeSO4, 650 units of catalase, 8 μg HGA dioxygenase (HGA: homogentisate) and 600 μM HPP in a total volume of 1 ml. Initial reaction rates in the absence or presence of inhibitors were determined from the increase in absorbance at 318 nm due to the formation of maleylacetoacetate (ε318=11,900 M−1 cm-1). pI50-values (the negative log value of the concentration of inhibitor necessary to inhibit 50% of the enzyme activity in molar concentration were determined from dose-response plots of HPPD activity versus inhibitor concentration tested using the 4 Parameter Logistic Model or Sigmoidal Dose-Response Model of the ID Business Solutions Ltd. XLfit software suite. Due to the UV absorption of the HPPD inhibitors tested, inhibitor concentrations >100 μM could not be tested. The result “<4” means that the inhibition at 100 μM inhibitor concentration was lower than 25% and the pI50-value could therefore not be precisely calculated within in the range of concentration of inhibitor tested. “n.d.” means not determined. The HGD assay allowed to continuously follow HPPD-catalyzed HGA formation over time was therefore used to determine the inhibition type of the HPPD inhibitors tested. […] When in the presence of an inhibitor the HPPD activity was inhibited but the inhibition was found not to […] in a time-dependent manner, the inhibitor was called reversible (abbreviation “rev”). […]

Molecule | Activity DeltaE/24 min μg Protein [DeltaE/24 min μg Protein]
B1 | 0.01
B2 | 0.40
B3 | 0.008
B4 | 0.66
B5 | 0.28
B6 | 0.21
B7 | 0.011
B8 | 0.20
B9 | 0.47
B10 | 0.07
B11 | 0.25
B12 | 0.41
B13 | 0.66

Same assay, conditions: inhibitor Cmpd. 2

Molecule | tolerance (pI50) Cmpd. 2
B1 | 5.1
B3 | 4.6
B5 | 5.3
B6 | 5.2
B7 | 4.6
B8 | 5.4
B9 | 5.4
B10 | 4.6
B12 | 5.6

Same assay, conditions: inhibitor diketonitrile (DKN), negative log of molar concentration

Molecule | tolerance (pI50) DKN
B1 | <2.5
B2 | 5.0
B4 | 5.2
B5 | 3.6
B6 | 3.4
B8 | 3.8
B9 | 3.5
B10 | <2.5
B11 | 4.3
B12 | <2.5
B13 | 5.3

Same assay, conditions: inhibitor mesotrione (MST)

Molecule | tolerance (pI50) MST
B1 | 3.7
B2 | 5.3
B3 | 3.2
B4 | 5.5
B5 | 4.3
B6 | 4.0
B7 | 3.2
B8 | 4.3
B9 | 4.1
B10 | 3.0
B11 | 5.1
B12 | 3.6
B13 | 5.6

Same assay, conditions: inhibitor tembotrione (TBT)

Molecule | tolerance (pI50) TBT
B1 | 4.8
B3 | 4.2
B5 | 5.3
B6 | 5.1
B7 | 4.2
B8 | 5.5
B9 | 5.3
B10 | 3.8
B12 | 4.6

Tested on: Pseudomonas fluorescens HPPD protein
Assay: HGD assay: HPPD activity coupled to HGA dioxygenase, pI50 and type of inhibition (time-course)
Format: biochemical
Conditions: not given
Procedure: as §1, §2

Molecule | mechanism of inhibition by Cmpd. 2, time-course of inhibition
B1 | fully reversible inhibitor
B3 | fully reversible inhibitor
B5 | fully reversible inhibitor
B6 | fully reversible inhibitor
B7 | fully reversible inhibitor
B8 | fully reversible inhibitor
B9 | fully reversible inhibitor
B10 | fully reversible inhibitor
B12 | fully reversible inhibitor

Same assay, conditions: assay not given, follows the time-course analysis (HGD assay)

Molecule | pI50-values of Cmpd. 2
B3 | 5.0
B5 | 5.5
B6 | 5.3
B7 | 4.7
B9 | 5.1
B10 | < 4
B12 | 5.5

Same assay, conditions: inhibitor Cmpd. 1; HGD assay

Molecule | tolerance (pI50) Cmpd. 1
B2 | 6.2

Same assay, conditions: inhibitor Cmpd. 2; HGD assay

Molecule | tolerance (pI50) Cmpd. 2
B1 | 4.9
B2 | 6.8

Same assay, conditions: inhibitor Cmpd. 3; HGD assay

Molecule | tolerance (pI50) Cmpd. 3
B2 | 6.4

Same assay, conditions: inhibitor Cmpd. 4; HGD assay

Molecule | tolerance (pI50) Cmpd. 4
B2 | 6.7

Same assay, conditions: inhibitor Cmpd. 5; HGD assay

Molecule | tolerance (pI50) Cmpd. 5
B2 | 6.1

Same assay, conditions: inhibitor diketonitrile (DKN); HGD assay

Molecule | tolerance (pI50) DKN
B4 | 4.9
B11 | 4.6
B13 | 5.1

Same assay, conditions: inhibitor mesotrione (MST); HGD assay

Molecule | tolerance (pI50) MST
B2 | 5.5
B4 | 5.0
B11 | 5.5
B13 | 5.1

Same assay, conditions: inhibitor tembotrione (TBT); HGD assay

Molecule | tolerance (pI50) TBT
B2 | 6.1
B11 | 6.2
B13 | 5.9
